Test results from patent US20240110168.

Molecular target: T1, second subunit of the Jack Bean (Canavalia ensiformis) β-hexosaminidase
T1 chain: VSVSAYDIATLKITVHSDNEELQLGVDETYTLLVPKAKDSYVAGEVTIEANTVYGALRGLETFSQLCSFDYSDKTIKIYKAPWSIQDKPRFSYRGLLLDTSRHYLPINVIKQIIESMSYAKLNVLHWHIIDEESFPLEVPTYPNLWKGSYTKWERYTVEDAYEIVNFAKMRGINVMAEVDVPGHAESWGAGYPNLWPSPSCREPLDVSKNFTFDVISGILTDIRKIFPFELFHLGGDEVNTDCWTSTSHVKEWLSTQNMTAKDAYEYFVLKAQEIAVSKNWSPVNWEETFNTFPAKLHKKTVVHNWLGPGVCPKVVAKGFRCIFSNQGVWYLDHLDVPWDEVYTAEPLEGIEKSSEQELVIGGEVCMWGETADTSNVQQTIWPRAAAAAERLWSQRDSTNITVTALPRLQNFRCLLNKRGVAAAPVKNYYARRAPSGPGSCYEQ

B1: first subunit of the Jack Bean (Canavalia ensiformis) β-hexosaminidase (protein)
chain: SIIEPTESLTYLWPLPADFTSGDETLSVDPALTLSVAGNGGGSSILRDAFDRYRGIIFKHSSVGFS
modifications: not fully specified
β-hexosaminidase (b-Hex) activity: Dissociation of the two chains led to a complete loss of activity
